# Assay results reported in patent US20250257332A1, “TRUNCATED AND FUSION PROTEINS” (Monash University, priority 2021, published 2025).
# Entries after “also recorded” stand apart in the source; their conditions may differ.
# B1: NAMPT402-491: Human NAMPT cytokine finger, residues 402-491 of full length NAMPT, SEQ ID NO: 1 (protein, listed as Homo sapiens)
# chain: SYVVTNGLGINVFKDPVADPNKRSKKGRLSLHRTPAGNFVTLEEGKGDLEEYGQDLLHTVFKNGKVTKSYSFDEIRKNAQLNIELEAAHH
# Assays:
# [1] = system: Human primary endothelial cells derived from umbilical vein; assay: Human primary endothelial cell proliferation, CyQuant; format: cell-based; conditions: 20 nM; 48 hours
# Description: (§1) FIG. 9. Human NAMPT variants stimulate human endothelial cell proliferation. Human primary endothelial cells derived from umbilical vein were treated with 20 nM full length NAMPT (NAMPT) or NAMPT variants (NAMPTxxx-xxx, where xxx are amino acid numbers) for 48 hours. Quantification of cell proliferation was performed using CyQuant Proliferation Assay kit. […] Treatment with 10% FBS was used as a positive control. Box and whiskers denote median with minimum and maximum values. n=6 independent experiments per protein. Statistical significance is indicated as p-value and determined by one-sample t-test.
# Similarly, the inventors next investigated the activity of full length NAMPT, NAMPT402-491 and NAMPT422-491 on human endothelial cell proliferation. Human endothelial cells were derived from umbilical vein and treated with 20 nM full length NAMPT (NAMPT) or NAMPT variants for 48 hours.
# [2] = system: needle-stab muscle injury in zebrafish larvae; assay: Larval zebrafish muscle injury and EdU pulse-chase; format: in vivo; conditions: 57 nM in Ringer's solution immediately after injury at 4 dpf; EdU at 2 dpi
# Description: Zebrafish larvae (4 dpf) were anaesthetized in 0.01% tricaine (MS-222) (Sigma-Aldrich) in Ringer's solution. Needle-stab injury was carried out in the dorsal myotome, consisting in a single 30-gauge needle puncture that generates an extensive injury with many damaged muscle fibres. Nampt fragment treatments were carried out by incubating 4 dpf needle-stab-injured larvae in 57 nM Nampt in Ringer's solution immediately after injury. Needle-stab-injured larvae at 6 dpf (2 dpi) were transferred into Ringer's solution containing 50 μg ml-1 EdU (Thermo Fisher Scientific) for 1 h and chased for a further 1.5 h before fixation. Samples were developed using the Click-iT EdU Alexa Fluor 647 imaging Kit (Thermo Fisher Scientific) following the manufacturer's protocol, followed by a phalloidin immunostaining (Thermo Fisher Scientific). EdU+ cells in a region encompassing two myotomes on either side of the injury were quantified as the number of EdU+ cells outside the injury region. EdU+ cells in the caudal haematopoietic tissue were excluded from this analysis. Statistical analysis has been conducted using Two-way ANOVA with Tuckey's multiple comparison test.
# [3] = system: C2C12 murine myoblast cells; assay: C2C12 cell proliferation, CyQuant Proliferation Assay kit; format: cell-based, mouse; conditions: 48 hours
# Description: FIG. 7. Human NAMPT variants stimulate muscle progenitor proliferation. C2C12 mouse myoblasts were treated with 20 nM full length NAMPT (NAMPT) or NAMPT variants for (NAMPTxxx-xxx, where xxx are amino acid numbers) 48 hours. Quantification of cell proliferation was performed using CyQuant Proliferation Assay kit. […] Box and whiskers denote median with minimum and maximum values. n=4-5 independent experiments per protein. Statistical significance is indicated as exact p-value. […] Significance between conditions were analysed by one-way ANOVA with Tukey post-hoc test.
# Human NAMPTcif (hNAMPTcif) and truncated variants of hNAMPTcif were designed by progressively removing N-terminal regions containing positively charged amino acids. Four truncations were produced and numbered T1 to T4. Recombinant protein was produced using a bacterial expression system. hNAMPTcif variants were purified by FPLC using His-tag affinity purification. Cell proliferation assays were performed using C2C12 murine myoblast cells treated with purified recombinant hNAMPTcif variants, as well as full length NAMPT. Cells were treated with 10 nM of recombinant protein for 48 hours in DMEM supplemented with 2% foetal bovine serum at 37° C., 5% CO2. PBS treatment was used as a negative control. 10% foetal bovine serum was used as positive control. Quantification of proliferation was performed using commercially-available CyQuant Proliferation Assay kit (Thermo Fisher Scientific) according to manufacturer's instructions and read using a Synergy H1 plate reader (BioTek). Data were presented as percentage increase versus.
# The heparin-binding sequence of placenta growth factor 2 (PIGF2) was fused to the N-terminus of NAMPTcif and produced using a bacterial expression system. PIGF-NAMPTcif was purified by FPLC using His-tag affinity purification followed by size exclusion chromatography. Cell proliferation assays were performed using C2C12 murine myoblast cells treated with purified recombinant NAMPTcif and full length NAMPT. Cells were treated with 2 nM, 10 nM and 20 nM concentrations of recombinant protein for 48 hours in DMEM supplemented with 2% foetal bovine serum at 37° C., 5% CO2. PBS treatment was used as a negative control. 10% foetal bovine serum was used as positive control. Quantification of proliferation was performed using commercially-available CyQuant Proliferation Assay kit (Thermo Fisher Scientific) according to manufacturer's instructions and read using a Synergy H1 plate reader (BioTek). Data were presented as percentage increase versus negative control. A two-tailed unpaired t-test was used to determine statistical significance.
# recombinant mouse CCR5 = biological target: T1, recombinant mouse CCR5 (Mus musculus, UniProt P51682); assay: NAMPT competitive binding to CCR5 (ELISA)
# T1 construct: purchased MyBioSource
# Description: hrNAMPT competitive binding to mrCCR5: ELISA plates (Medium binding, Greiner Bio-One) were coated with 1% BSA or 20 nM of recombinant mouse CCR5 (MyBioSource) in PBS overnight at 4° C. Then, wells were blocked for 1 h at room temperature with 1% BSA in PBS containing 0.05% Tween-20 (PBS-T). Wells were washed 3 times with PBS-T and further incubated with hNAMPTcif at increasing concentration (0 nM to 100 nM) for 1 h in PBS-T with 0.1% BSA containing 100 nM hrNAMPT (1) (Peprotech). Bound hrNAMPT (1) molecules were detected using a biotinylated antibody for NAMPT and HRP-streptavidin (Human PBEF/Visfatin DuoSet ELISA, R&D Systems). Signals obtained on BSA-coated wells were used to remove non-specific binding for each hrNAMPT concentrations to obtain specific binding values. Specific binding data were fitted by non-linear regression with Prism 7 to obtain the half maximal inhibitory concentration (IC50) of hNAMPTnif using A450nm=A450nmMin+(A450nmMax−A450nmMin)/(1+10^(X-LogIC50)).
# [4] = system: Human primary satellite cells; assay: Human primary satellite cell proliferation, CyQuant; format: cell-based; conditions: 20 nM; 48 hours; media with IGF-1 and FGF-2
# Description: as §1, with “8.” for “9.”, “satellite” for “endothelial”, “cells” for “cells derived from umbilical vein”, “hours. The media contained the growth factors IGF-1 and FGF-2 as well.” for “hours.”, “20%” for “10%”, “n=6-10” for “n=6”
# The inventors next sought to compare the activity of full length NAMPT, NAMPT402-491 and NAMPT422-491 on human satellite cell proliferation. Human primary satellite cells were treated with 20 nM full length NAMPT (NAMPT) or NAMPT402-491 and NAMPT422-491 for 48 hours.
# TLR4 = biological target: T2, TLR4 (Homo sapiens, UniProt O00206); assay: TLR4 signalling assay in HEK-Blue TLR4 reporter cells; format: cell-based; conditions: 19 nM; 24 hours; plus 5 ug/ml polymyxin B; listed as NAMPTcif
# T2 construct: host or cells: HEK-Blue TLR4 reporter cell line
# Description: TLR4 receptor activation was assayed using the HEK-Blue TLR4 reporter cell line (InvivoGen). In this cell line, TLR4 and downstream NFκB signalling induces expression and secretion of alkaline phosphatase that can be quantified via colorimetric assay. HEK-Blue cells were treated for 24 hours with 19 nM of NAMPTcif or PIGF-NAMPTcif plus 5 ug/ml polymyxin B to ensure no TLR4 activation by any trace amounts of endotoxin. TLR4 activity was reported as the equivalent amount of activation by bacterial lipopolysaccharides (LPS), thus a standard curve was generated by serial dilutions of LPS from 0.01 to 20 ng/ml. Detection of alkaline phosphatase activity was performed using a QUANTI-Blue kit (InvivoGen) according to manufacturer's instructions and plates were read using a Synergy H1 plate reader (BioTek). Data were presented as equivalent LPS concentration in ng/ml. A one-way ANOVA with Dunnett's multiple comparisons test was performed to determine statistical significance.
# T2 sequence (O00206 24-839): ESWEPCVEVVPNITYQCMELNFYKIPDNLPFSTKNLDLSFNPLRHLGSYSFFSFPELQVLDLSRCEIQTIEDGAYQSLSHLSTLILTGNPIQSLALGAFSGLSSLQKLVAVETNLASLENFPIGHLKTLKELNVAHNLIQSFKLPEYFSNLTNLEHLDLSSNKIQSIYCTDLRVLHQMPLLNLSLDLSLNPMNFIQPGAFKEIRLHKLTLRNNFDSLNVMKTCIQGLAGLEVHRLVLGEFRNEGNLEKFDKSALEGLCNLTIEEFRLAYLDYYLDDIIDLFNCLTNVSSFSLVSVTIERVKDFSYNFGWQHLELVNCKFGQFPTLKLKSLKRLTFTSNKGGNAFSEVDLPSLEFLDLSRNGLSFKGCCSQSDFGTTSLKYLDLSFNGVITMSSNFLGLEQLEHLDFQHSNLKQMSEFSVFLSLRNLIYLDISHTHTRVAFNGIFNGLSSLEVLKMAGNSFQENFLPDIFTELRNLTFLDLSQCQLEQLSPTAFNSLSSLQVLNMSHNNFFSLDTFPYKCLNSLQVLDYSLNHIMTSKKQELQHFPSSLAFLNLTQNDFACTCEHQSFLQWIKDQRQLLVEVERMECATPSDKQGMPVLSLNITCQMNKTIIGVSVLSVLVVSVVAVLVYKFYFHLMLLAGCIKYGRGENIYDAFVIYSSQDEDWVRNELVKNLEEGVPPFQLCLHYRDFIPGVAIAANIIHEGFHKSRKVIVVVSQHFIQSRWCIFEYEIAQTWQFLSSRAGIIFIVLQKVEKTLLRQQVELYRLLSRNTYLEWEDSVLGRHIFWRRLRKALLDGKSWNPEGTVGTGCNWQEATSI
# T2 sequence (Q9Y6Y9 17-160 partner limits assumed): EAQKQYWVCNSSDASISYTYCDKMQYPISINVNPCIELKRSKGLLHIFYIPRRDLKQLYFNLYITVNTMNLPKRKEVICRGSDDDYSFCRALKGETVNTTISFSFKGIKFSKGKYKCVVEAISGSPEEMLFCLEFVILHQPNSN
# T1 sequence (P51682 whole entry): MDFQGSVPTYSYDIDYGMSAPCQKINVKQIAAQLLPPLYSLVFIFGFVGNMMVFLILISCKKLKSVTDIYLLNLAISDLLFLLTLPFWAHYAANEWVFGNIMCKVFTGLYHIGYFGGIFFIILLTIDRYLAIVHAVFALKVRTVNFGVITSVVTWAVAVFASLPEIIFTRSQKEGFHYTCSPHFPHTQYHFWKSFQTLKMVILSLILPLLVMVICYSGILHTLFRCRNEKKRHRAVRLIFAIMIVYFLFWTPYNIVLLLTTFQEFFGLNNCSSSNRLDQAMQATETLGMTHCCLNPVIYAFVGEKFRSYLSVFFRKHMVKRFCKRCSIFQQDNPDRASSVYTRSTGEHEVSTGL
molecule,measurement,setting,value
B1,"endothelial cell proliferation, percentage increase vs PBS-treated control",[1],increased endothelial cell proliferation compared to full length NAMPT and NAMPT422-491
same,cell proliferation (EdU-positive cells) within the injury zone,[2],significant increase in cell proliferation within the injury zone
same,"cell proliferation, percentage increase vs PBS-treated control","[3]; 10 nM, compared with full length NAMPT, listed as cif",stimulates satellite cell proliferation in a dose-dependent manner
same,"cell proliferation, percentage increase vs PBS-treated control","[3]; 10 nM, compared with full length NAMPT, listed as hNAMPTcif",enhanced stimulated satellite cell proliferation compared to full length hNAMPT
same,"cell proliferation, percentage increase vs PBS-treated control","[3]; 20 nM, compared with full-length NAMPT",enhanced cellular proliferation compared to full-length NAMPT
same,inhibition of NAMPT binding to CCR5,recombinant mouse CCR5,inhibits the binding of NAMPT to CCR5
same,"satellite cell proliferation, percentage increase vs PBS-treated control",[4],increased satellite cell proliferation compared to full length NAMPT
same,TLR4 activation (equivalent LPS concentration),TLR4,does not induce TLR4 activity compared to full length NAMPT; also recorded: abrogated TLR4 activity
